These results are taken from patent publication US20040073013A1 (Chugai, published 2004).

For test [1], the target named is T1, human Integrin Associated Protein (IAP) expressed on mouse leukemia cell line L1210 (human, UniProt Q08722 19-323).
T1 construct: whole, on cells; also called human IAP; hIAP/L1210
Nature of the test: flow cytometry, COS7 supernatant on L1210 cells expressing human IAP. How it is done:
Flow cytometry was performed using the aforementioned culture supernatant of COS7 cells to measure binding to the antigen. The culture supernatant of the COS7 cells expressing the chimera MABL-1 antibody or the COS7 cells expressing the chimera MABL-2 antibody, or human IgG antibody (SIGMA) as a control was added to 4×10⁵ cells of mouse leukemia cell line L1210 expressing human IAP and incubated on ice. After washing, the FITC-labeled anti-human IgG antibody (Cappel) was added thereto. After incubating and washing, the fluorescence intensity thereof was measured using the FACScan apparatus (BECTON DICKINSON).

Test [2] has as its target T1, human Integrin Associated Protein (IAP) …. Briefly: flow cytometry, COS7 supernatant on L1210 cells expressing human IAP, anti-FLAG detection. How it is done:
Flow cytometry was performed using the culture supernatants of COS7 cells prepared in Example 6.3 (1) to measure the binding of the MABL2-scFVs and sc(Fv)₂ to human Integrin Associated Protein (IAP) antigen. The culture supernatants to be tested or a culture supernatant of COS7 cells as a control was added to 2×10⁵ cells of the mouse leukemia cell line L1210 expressing human IAP. After incubating on ice and washing, 10 μg/mL of the mouse anti-FLAG antibody (SIGMA) was added and then the cells were incubated and washed. Then, the FITC labeled anti-mouse IgG antibody (BECTON DICKINSON) was added thereto and the cells were incubated and washed again. The fluorescence intensity was measured using the FACScan apparatus (BECTON DICKINSON).

In test [3] the target is secretion-type human IAP antigen (human, UniProt Q08722 19-142, limits assumed). Briefly: competitive ELISA on captured secretion-type human IAP; competitor biotinized MABL-2 antibody. Here is the method:
The binding activity of the reconstructed single-chain Fv of antibody MABL-2 was measured based on the inhibiting activity against the binding of mouse monoclonal antibodies to the antigen.
The anti-FLAG antibody adjusted to 1 μg/ml was added to each well on 96-well plate and incubated at 37° C. for 2 hours. After washing, blocking was performed with 1% BSA-PBS. After incubating and washing at a room temperature, the culture supernatant of COS7 cells into which the secretion-type human IAP antigen gene (SEQ ID No. 26) had been introduced was diluted with PBS into twofold volume and added to each well. After incubating and washing at a room temperature, a mixture of 50 μl of the biotinized MABL-2 antibody adjusted to 100 ng/ml and 50 μl of sequentially diluted supernatant of the COS7 cells expressing the reconstructed single-chain Fv of antibody MABL-2 were added into each well. After incubating and washing at a room temperature, the alkaline phosphatase-conjugated streptoavidin (Zymed) was added into each well. After incubating and washing at a room temperature, the substrate solution (SIGMA) was added and absorbance of the reaction mixture in each well was measured at 405 nm.
In general terms: ELISA stands for enzyme-linked immunosorbent assay.

Substitutions are numbered along the chain they refer to.

T1 sequence (Q08722 19-323): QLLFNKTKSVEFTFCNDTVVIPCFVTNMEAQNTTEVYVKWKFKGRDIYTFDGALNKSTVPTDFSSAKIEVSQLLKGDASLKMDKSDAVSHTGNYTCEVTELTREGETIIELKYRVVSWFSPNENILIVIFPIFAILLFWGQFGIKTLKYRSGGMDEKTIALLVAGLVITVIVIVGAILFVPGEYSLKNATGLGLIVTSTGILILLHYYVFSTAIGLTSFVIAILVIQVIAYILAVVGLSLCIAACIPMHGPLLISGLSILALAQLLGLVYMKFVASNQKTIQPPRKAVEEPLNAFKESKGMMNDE
secretion-type human IAP antigen, sequence (Q08722 other isoform, or with tags, fused parts or gaps limits assumed): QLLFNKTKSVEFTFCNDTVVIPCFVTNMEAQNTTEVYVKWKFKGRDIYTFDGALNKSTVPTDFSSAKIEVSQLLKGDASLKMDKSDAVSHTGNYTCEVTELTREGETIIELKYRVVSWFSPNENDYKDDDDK

B1: chimera MABL-1 antibody (antibody, V domains shown)
VH: QVQLQQSGPDLVKPGASVKMSCKASGYTFVNHVMHWVKQKPGQGLEWIGYIYPYNDGTKYNEKFKGKATLTSEKSSSAAYMELSSLASEDSAVYYCARGGYYSYDDWGQGTTLTVSS
VL: DVVMTQTPLSLPVSLGDQASISCRSSQSLLHSKGNTYLQWYLQKPGQSPKLLIYKVSNRFSGVPDRFSGSGSGTDFTLKISRVEAEDLGVYFCSQSTHVPYTSGGGTKLEIK
notes: Mouse MABL-1 V regions cloned into HEF-kappa and HEF-gamma expression vectors carrying human C regions (WO92/19759); Tested as COS7 culture supernatant
Take B1: the binding result in test [1] was “binds”.

B2: chimera MABL-2 antibody (antibody, V domains shown)
VH: B1 VH with D10E, V30A, M34I, G66D, E73D, S77T, A78T, E82D, S103T
VL: B1 VL with T7S, L30V, K33N, N35K, Q39H, G73V, K79M, S103F
notes: Mouse MABL-2 V regions cloned into HEF-kappa and HEF-gamma expression vectors carrying human C regions (WO92/19759); Tested as COS7 culture supernatant
As for B2, in test [1], the binding result was “binds”.

B3: MABL2-scFv <HL-0> (scFv)
scFv: QVQLQQSGPELVKPGASVKMSCKASGYTFANHVIHWVKQKPGQGLEWIGYIYPYNDGTKYNEKFKDKATLTSDKSSTTAYMDLSSLASEDSAVYYCARGGYYTYDDWGQGTTLTVSSDVVMTQSPLSLPVSLGDQASISCRSSQSLVHSNGKTYLHWYLQKPGQSPKLLIYKVSNRFSGVPDRFSGSGSVTDFTLMISRVEAEDLGVYFCSQSTHVPYTFGGGTKLEIKDYKDDDDK
notes: [H chain V]-[L chain V] without a linker, with a leader at the 5' end and FLAG at the C-terminus; COS7 culture supernatant; also called CF2HL-0/pCOS1
Take B3: in test [2], the binding result is given as “binds”.

B4: MABL2-scFv <LH-0> (scFv)
scFv: DVVMTQSPLSLPVSLGDQASISCRSSQSLVHSNGKTYLHWYLQKPGQSPKLLIYKVSNRFSGVPDRFSGSGSVTDFTLMISRVEAEDLGVYFCSQSTHVPYTFGGGTKLEIKQVQLQQSGPELVKPGASVKMSCKASGYTFANHVIHWVKQKPGQGLEWIGYIYPYNDGTKYNEKFKDKATLTSDKSSTTAYMDLSSLASEDSAVYYCARGGYYTYDDWGQGTTLTVSSDYKDDDDK
notes: [L chain V]-[H chain V] without a linker, with a leader at the 5' end and FLAG at the C-terminus; COS7 culture supernatant; also called CF2LH-0/pCOS1
As to B4, the binding result in test [2] is given as “binds”.

B5: antibody MABL-2 sc(Fv)2, reconstructed polypeptide comprising two H chain V regions and two L chain V regions (other)
chain: QVQLQQSGPELVKPGASVKMSCKASGYTFANHVIHWVKQKPGQGLEWIGYIYPYNDGTKYNEKFKDKATLTSDKSSTTAYMDLSSLASEDSAVYYCARGGYYTYDDWGQGTTLTVSSGGGGSGGGGSGGGGSDVVMTQSPLSLPVSLGDQASISCRSSQSLVHSNGKTYLHWYLQKPGQSPKLLIYKVSNRFSGVPDRFSGSGSVTDFTLMISRVEAEDLGVYFCSQSTHVPYTFGGGTKLEIKGGGGSGGGGSGGGGSVDSQVQLQQSGPELVKPGASVKMSCKASGYTFANHVIHWVKQKPGQGLEWIGYIYPYNDGTKYNEKFKDKATLTSDKSSTTAYMDLSSLASEDSAVYYCARGGYYTYDDWGQGTTLTVSSGGGGSGGGGSGGGGSDVVMTQSPLSLPVSLGDQASISCRSSQSLVHSNGKTYLHWYLQKPGQSPKLLIYKVSNRFSGVPDRFSGSGSVTDFTLMISRVEAEDLGVYFCSQSTHVPYTFGGGTKLEIKDYKDDDDK
notes: Single chain VH-VL-VH-VL from plasmid pCHOM2(Fv)2, with a C-terminal FLAG; Eluted at the position of the monomer in gel filtration
In the case of B5, the binding result in test [2] is given as “binds”.

B6: reconstructed single-chain Fv of antibody MABL-2 (MABL2-scFv), from pCHOM2-transfected COS7 cells (scFv)
scFv: QVQLQQSGPELVKPGASVKMSCKASGYTFANHVIHWVKQKPGQGLEWIGYIYPYNDGTKYNEKFKDKATLTSDKSSTTAYMDLSSLASEDSAVYYCARGGYYTYDDWGQGTTLTVSSGGGGSGGGGSGGGGSDVVMTQSPLSLPVSLGDQASISCRSSQSLVHSNGKTYLHWYLQKPGQSPKLLIYKVSNRFSGVPDRFSGSGSVTDFTLMISRVEAEDLGVYFCSQSTHVPYTFGGGTKLEIKDYKDDDDK
notes: Tested as COS7 culture supernatant; also called MABL2-scFv/COS7
With B6, the binding result in test [2] and in test [3] was “binds” each time.
